# Assay results from patent US20170355770A1 (ASKGENE PHARMA, published 2017).
# T1: human PDL2 (human, UniProt Q9BQ51 20-219, limits assumed)
# T1 construct: Bought protein
# T1 sequence (looked up): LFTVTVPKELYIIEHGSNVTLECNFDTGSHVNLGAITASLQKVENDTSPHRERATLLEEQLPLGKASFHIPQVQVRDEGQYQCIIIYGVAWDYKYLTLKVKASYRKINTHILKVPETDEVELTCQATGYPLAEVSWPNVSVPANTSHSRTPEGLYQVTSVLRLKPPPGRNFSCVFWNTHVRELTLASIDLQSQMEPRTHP
# Columns and labels:
# [1] = molecular target: PD-L1 ligand (analyte of the Octet affinity measurement) (UniProt Q9NZQ7 19-238, limits assumed); test: BLI (Octet RED 96), antibody captured on anti-human IgG sensor, PD-L1 in solution, 1:1 fit
# Experimental: Affinity Measurement: The affinity measurement was conducted with Octet RED 96 (ForteBio) instrument at 30 degree Celsius. Briefly, anti-human IgG capture sensor (AHC from ForteBio cat #18-5060) was equilibrated with assay buffer (1× dilution of 10× Kinetics Buffer (ForteBio, Cat #18-5032). Test antibody samples were diluted to 3 ug/mL and allowed to bind to the sensors for 5 min. The sensors were then washed in assay buffer for 3 minutes, and PD-L1 ligand diluted at different concentrations were allowed to bind to the mAb coated on the sensors for 5 minutes. Afterwards, dissociation was followed for 10 minutes in the assay buffer. The sensors could be regenerated by washing in glycine buffer and assay buffer 3 times. The data were fitted with 1:1 binding model using the ForteBio software.
# [2] = molecular target: human PD-L1 expressed on cells (human, UniProt Q9NZQ7 19-290); test: cell-based or functional assay
# [3] = molecular target: T1, human PDL2; test: ELISA, coated human PDL2
# [4] = molecular target: T2, human PD-L1-Fc (human, UniProt Q9NZQ7 19-238, limits assumed); test: competition ELISA: coated human PD-L1-Fc, antibody added first, then PD1-his, detected with anti-His-HRP
# T2 construct: Bought fusion protein; not shown: Fc part
# [5] = molecular target: T1, human PDL2; test: ELISA on coated human PDL2 (printed: hu PDL2-Fc), purified chimeric antibody [panel hu PDL2-Fc ELISA]
# Experimental: PD-L1 binding ELISAs: B cell cloning supernatants were tested for binding to PD-L1 by ELISA. ELISA plates were coated with 100 uL antigen at 0.5 or 1 ug/mL in PBS (Life Technologies, cat. #14190-250) overnight at 4° C. or for 1 hour at 37° C. […] Plates were then blocked with PBS+10% goat serum for 1 hour. After washing with deionized water, samples were added in PBS/10% goat serum and incubated for 1 hour. […] Plates were then washed with deionized water and 100 uL TMB substrate (Thermo Scientific, cat. #PI134021) was added to each well. Development was stopped with 100 uL 1N H₂SO₄, and OD450 was measured using a microplate spectrophotometer.
# Purified chimeric and humanized antibodies were tested for binding to PD-L1 by ELISA. Antigens tested include; human PD-L1-Fc, human PD-L1-his, murine PD-L1-his, and cynomolgus PD-L1-his (Sinobiological, cat. #90251-CO8H) and human PDL2 (Acrobiosystems, cat. #PD2-H5251). Protocols were the same as for testing B cell cloning supernatants except that the secondary antibodies were as follows; for human PD-L1-Fc the secondary was goat anti-human kappa-HRP (Novex, Life Technologies, cat. #A18853), for human PD-L1-his, murine PD-L1-his and cynomolgus PD-L1-his the secondary was goat anti-human IgG Fc-HRP (Jackson ImmunoResearch, cat. #109-005-098).
# PD-L1 ligand (analyte of the Octet affinity measurement), sequence (Q9NZQ7 19-238 limits assumed): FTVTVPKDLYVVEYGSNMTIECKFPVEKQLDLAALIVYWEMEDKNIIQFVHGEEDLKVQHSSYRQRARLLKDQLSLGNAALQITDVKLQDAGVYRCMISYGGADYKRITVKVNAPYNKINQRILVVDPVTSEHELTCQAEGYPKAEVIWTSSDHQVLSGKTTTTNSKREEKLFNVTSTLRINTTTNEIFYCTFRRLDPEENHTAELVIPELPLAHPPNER
# T2 sequence (Q9NZQ7 19-238 limits assumed): as above
# human PD-L1 expressed on cells, sequence (Q9NZQ7 19-290): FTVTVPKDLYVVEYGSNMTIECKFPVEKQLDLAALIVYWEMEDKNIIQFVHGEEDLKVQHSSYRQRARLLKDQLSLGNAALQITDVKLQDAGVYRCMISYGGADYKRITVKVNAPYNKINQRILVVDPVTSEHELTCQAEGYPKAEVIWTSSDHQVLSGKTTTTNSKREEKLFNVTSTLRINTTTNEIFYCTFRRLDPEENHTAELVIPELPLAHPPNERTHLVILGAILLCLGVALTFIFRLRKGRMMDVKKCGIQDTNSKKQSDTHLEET
Binder,Kd [1],koff [1],kon [1],"EC50 of the rise of luciferase activity, PD1/PD-L1 blockade reporter assay (CHO-K1/TCRA/PD-L1 cells with PD1/NFAT Jurkat cells); column Chimeric of the table under the plot [2]",binding result [3],IC50 (read off the curve) [4],binding result [5]
"chimeric anti-PD-L1 antibody 111H2 (antibody, V domains shown, also called chimeric anti-PD-L1 111H2 antibody) VH: QEQLVESGGGLVQPGGTLKLSCKGSGFDLSSNAMCWVRQAPGKGLEWIGCIVYGNCYYASWVNGRFTISSDNAQSSVDLQLNSLTAADTATYFCARDPAGSSVYTGGFNIWGPGTLVTVSS VL: AIDMTQTPSPVSAAVGDTVTINCQASENIYSFLAWYQQKPGHSPKPLIYFASKLASGVPSRFKGSGSGTQFTLTISDVQCDDAATYYCQQTVSYKNADTAFGGGTKVVVVR",0.183 nM,0.000197 s⁻¹,1.07e+06 M⁻¹ s⁻¹,0.0483 µg/mL,no binding,–,–
"chimeric anti-PD-L1 antibody 110B4 (antibody, V domains shown) VH: CQSVKESEGGLFKPTDTLTLTCKVSGIDLSSISISWVRQAPGNGLEWIGVINSYGNTYYASWAKSRSTITRNTNENTVTLKMTSLTAADTATYFCAKEILYYGMDLWGPGTLVTVSS VL: DVVMTQTPASVEAAVGGTVTIKCQASQSISSYFSWYQQKPGQRPKLLIYDASNLESGVPSRFKGSRSGTEYTLTISDLEWDDAATYYCQCTYGSTSSSNYGNNFGGGTKVVVVR",0.173 nM,6.87e-05 s⁻¹,404000 M⁻¹ s⁻¹,–,no binding,–,–
"chimeric anti-PD-L1 antibody 110H8 (antibody, V domains shown) VH: CQSVKESEGGLFKPTDTLTLTCTVSGIDLSSVSISWVRQAPGNGLEWIGTIGASGSAYYASWAKRRSTITRNTNLNTVTLKMTSLTAADTASYFCAKEILYYGMDLWGPGTLVTVSS VL: DVVMTQTPASVEAAVGGTVTIKCQASQSISNYLAWYQQKPGQRPKLLIYAASNLEPGVPSRFKGSGSGTEYTLTITDLECDDAATYHCQCTYGSTSSSDYGNAFGGGTKVVVVR",< 0.001 nM,< 1e-07 s⁻¹,755000 M⁻¹ s⁻¹,–,no binding,–,–
"chimeric anti-PD-L1 antibody 113F1 (antibody, V domains shown) VH: CQSVKESEGGLFKPTDTLTLTCTVSGIDLSSIAISWVRQAPGNGLEWIGTINSYGSTYYASWAQSRSTITRNTNENTVTLKMTSLTAADTASYFCAKEILYYGMDVWGPGTLVTVSS VL: DVVMTQTPASVEAAVGGTVTIKCQASQSISSYLAWYQQKPGQPPKLLIYAASNLESGVPSRFKGSGSGTEYTLTISDLECDDAATYYCQSTYGTTSTSDYGNAFGGGTKVVVVR",0.115 nM,3.78e-05 s⁻¹,362000 M⁻¹ s⁻¹,–,–,–,no binding (tested: 4 µg/mL)
"chimeric anti-PD-L1 antibody 115C1 (antibody, V domains shown) VH: CQSVKESEGGLFKPTDTLTLTCTVSGFSLSSVAVSWVRQAPGKGLEWIGTISYTGNTYYASWAKSRSTITRNTNENTVTLKMPSLTVADTATYFCAKEILYYGMDFWGPGTLVTVSS VL: DIVMTQTPSSVSAAVGGTVTINCQASQSISSYLAWYQQKPGQPPKLLIYGASNLESGVPSRFKGSGSGTDFTLTISDLECADAATYYCQSTYGSTSTSDYGNAFGGGTKVVVVR",0.051 nM,2.08e-05 s⁻¹,455000 M⁻¹ s⁻¹,–,–,–,no binding (tested: 4 µg/mL)

# Further lines, results first:
Kd [1],koff [1],kon [1],"EC50 of the rise of luciferase activity, PD1/PD-L1 blockade reporter assay (CHO-K1/TCRA/PD-L1 cells with PD1/NFAT Jurkat cells); column Chimeric of the table under the plot [2]",binding result [3],IC50 (read off the curve) [4],binding result [5],Binder
< 0.001 nM,< 1e-07 s⁻¹,682000 M⁻¹ s⁻¹,–,–,~0.2 µg/mL,no binding (tested: 4 µg/mL),"chimeric anti-PD-L1 antibody 116F3 (antibody, V domains shown) VH: CQSVKESEGGLFKPTDTLTLTCTVSGIDLSSISIGWVRQAPGNGLEWIGTISDSGSAYYASWAKSRSTITRNTNENTVTLKMTSLTAADTASYFCAKEILYYGMDLWGPGTLVTVSS VL: DVVMTQTPASVSGAVGGTVTIKCQASEDIESYLAWYQQKPGQPPKLLIYAASNLEPGVPSRFKGSRSGTEYTLTITDLECDDAATYHCQATYGSTSSSDYGNAFGGGTKVVVVR"
0.1 nM,4.99e-05 s⁻¹,532000 M⁻¹ s⁻¹,–,–,–,no binding (tested: 4 µg/mL),"chimeric anti-PD-L1 antibody 115E2 (antibody, V domains shown) VH: CQSVKESEGGLFKPMDTLTLTCTVSGIDLGSVAISWVRQAPGKGLEWIGTIGSSGSAYYASWAKSRSTITRNTNLNTVTLKMTSLTAADTASYFCAKEILYYGMDRWGPGTLVTVSS VL: DVVMTQTPASVEASVGGTVTINCQASQSISSYLAWYQQKPGQPPKLLIYAASNLEPGVPSRFKGSGSGTEFTLTISDLECADAATYYCQATYGSTSSSDYGNAFGGGTKVVVVR"
